Experiment [1] concerns the target SV40 large T antigen (SV40) (UniProt P03070). The experiment in a line: in vitro phosphorylation of the large T:Rb complex, immunoprecipitation with anti-large T antibody.
Experiment [2] has as its target SV40 large T antigen (SV40), P03070. Described as above. Particulars: remark: other sources report otherwise.

Values joined by “and” are separate entries in the source; they are usually repeats but may differ in a detail not shown here. Identical values can stand only once.

This passage reports percent of the Rb protein released from large T by phosphorylation and percent of the Rb protein that remained bound after phosphorylation results from US6590086.

For RB-E (from UniProt P06400 2-928), in experiment [1], the percent of the Rb protein released from large T by phosphorylation stood at 70%.

B1: RB-H, P06400 2-928 (protein)
chain: PPKTPRKTAATAAAAAAEPPAPPPPPPPEEDPEQDSGPEDLPLVRLEFEETEEPDFTALCQKLKIPDHVRERAWLTWEKVSSVDGVLGGYIQKKKELWGICIFIAAVDLDEMSFTFTELQKNIEISVHKFFNLLKEIDTSTKVDNAMSRLLKKYDVLFALFSKLERTCELIYLTQPSSSISTEINSALVLKVSWITFLLAKGEVLQMEDDLVISFQLMLCVLDYFIKLSPPMLLKEPYKTAVIPINGSPRTPRRGQNRSARIAKQLENDTRIIEVLCKEHECNIDEVKNVYFKNFIPFMNSLGLVTSNGLPEVENLSKRYEEIYLKNKDLDARLFLDHDKTLQTDSIDSFETQRTPRKSNLDEEVNVIPPHTPVRTVMNTIQQLMMILNSASDQPSENLISYFNNCTVNPKESILKRVKDIGYIFKEKFAKAVGQGCVEIGSQRYKLGVRLYYRVMESMLKSEEERLSIQNFSKLLNDNIFHMSLLACALEVVMATYSRSTSQNLDSGTDLSFPWILNVLNLKAFDFYKVIESFIKAEGNLTREMIKHLERCEHRIMESLAWLSDSPLFDLIKQSKDREGPTDHLESACPLNLPLQNNHTAADMYLSPVRSPKKKGSTTRVNSTANAETQATSAFQTQKPLKSTSLSLFYKKVYRLAYLRLNTLCERLLSEHPELEHIIWTLFQHTLQNEYELMRDRHLDQIMMCSMYGICKVKNIDLKFKIIVTAYKDLPHAVQETFKRVLIKEEEYDSIIVFYNSVFMQRLKTNILQYASTRPPTLSPIPHIPRSPYKFPSSPLRIPGGNIYISPLKSPYKISEGLPTPTKMTPRSRILVSIGESFGTSEKFQKINQMVCNSDRVLKRSAEGSNPPKPLKKLRFDIEGSDEADGSKHLPGESKFQQKLAEMTSTRTRMQKQKMNDSMDTSNKEEK
As to B1, the percent of the Rb protein that remained bound after phosphorylation in experiment [2] is 20% and 30%.
